Laboratory results from patent US11123408B2, “Compositions and methods for treating nonsteroidal anti-inflammatory drug (NSAID) associated coagulopathy, thrombocytopenia, glanzmann's thrombasthenia, and/or thrombosis” (YALE UNIVERSITY, priority 2011, dated 2021).

Assays:
Format in all cases: cell-based, human
[1] = test system: platelets in platelet rich plasma; assay: Light transmission aggregometry (LTA) in platelet rich plasma
Description: Whole blood from healthy voluntary donors was collected in accordance with an IRB-approved protocol into blue top vacutainer tubes containing 3.2% sodium citrate. Blood was centrifuged at 1000 RPM for 10 minutes at room temperature to collect platelet rich plasma (PRP). PRP in the supernatant was then transferred to fresh tubes, and the remainder of the specimen was centrifuged at 4000 RPM for 10 minutes to obtain platelet poor plasma (PPP). PRP was adjusted to a final platelet count of 250×10^6 platelets/mL with autologous PPP for use in aggregation studies. Potential donors were excluded if there was a history of a bleeding disorder or current anticoagulant use and donors were instructed to avoid NSAIDs for at least 7 days prior to donation. Approval for the human subjects involved in this research was sought and granted by the Committee for the Protection of Human Subjects, Dartmouth-Hitchcock Medical Center, where these studies were conducted in accordance with the Declaration of Helsinki.
Light transmission (i.e., optical) and lumi aggregometry were performed on up to four samples from the same individual simultaneously with a Chrono-Log Model 700 Whole Blood/Optical Lumi Aggregometer (Chrono-Log Corporation, Havertown, Pa.) using procedures provided by the manufacturer that are briefly summarized here.
(§1) Platelet aggregation was determined by measuring the change in light transmittance of stirred PRP over time after addition of various agonists. Prior to each experiment the aggregometer was standardized to reflect 100% and 0% light transmittance with PPP and PRP, respectively, from the donor whose platelets were used in each specific experiment. 500 μL PRP was added to cuvettes containing a magnetic stir bar and allowed to pre-warm to 37° C. in the aggregometer wells for 3 minutes prior to initiating aggregation reactions which were then conducted at 37° C. Aggregation reactions were initiated by direct addition of agonists and/or enzymes to warmed, stirred PRP, and were monitored for an increase in light transmittance for 10 minutes. The increase in light transmittance is directly proportional to the amount of aggregation and is amplified and digitized into a computer (HP Compaq, Hewlett-Packard, Palo Alto, Calif.) with the AGGRO/LINK8 for Windows software (Chrono-Log Corporation, Havertown, Pa.) to generate aggregation curves. […] The platelet aggregometry experiments for all concentrations of MRS 2395 (including the 0 μM point) were conducted with the plasma adjusted to a final concentration of 10% DMSO to solubilize the inhibitor.

[2] = test system: platelets exposed to NSAIDs; assay: LTA in platelet-rich plasma from an individual who had consumed ibuprofen; conditions: 20 nM NPP4; 3 μM ADP; donor took 800 mg ibuprofen 12 hours before
Description: as §1
(§2) NPP4 rescues platelets exposed to NSAIDs. […]

[3] = test system: platelets of a patient donor with a mild platelet storage pool disorder; assay: LTA in platelet rich plasma of a patient donor with a mild platelet storage pool disorder; conditions: 50 nM NPP4; 2.5 μM ADP; without NPP4 approximately 40%
Description: as §1, §2

B1: NPP4: soluble recombinant extracellular domain of human NPP4 (NCBI AAH18054.1, residues 1-407 of SEQ ID NO:1), expressed in insect cells (protein, listed as Homo sapiens)
chain: MKLLVILLFSGLITGFRSDSSSSLPPKLLLVSFDGFRADYLKNYEFPHLQNFIKEGVLVEHVKNVFITKTFPNHYSIVTGLYEESHGIVANSMYDAVTKKHFSDSNDKDPFWWNEAVPIWVTNQLQENRSSAAAMWPGTDVPIHDTISSYFMNYNSSVSFEERLNNITMWLNNSNPPVTFATLYWEEPDASGHKYGPEDKENMSRVLKKIDDLIGDLVQRLKMLGLWENLNVIITSDHGMTQCSQDRLINLDSCIDHSYYTLIDLSPVAAILPKINRTEVYNKLKNCSPHMNVYLKEDIPNRFYYQHNDRIQPIILVADEGWTIVLNESSQKLGDHGYDNSLPSMHPFLAAHGPAFHKGYKHSTINIVDIYPMMCHILGLKPHPNNGTFGHTKCLLVDQWCINLPEA
- maximum aggregation ([1]; 100 nM NPP4 at 80 μM Ap3A): 80%
- maximum aggregation ([1]; 200 nM NPP4 at 80 μM Ap3A): 90%
- platelet aggregation response of enzyme in the presence of 80 μM Ap3A (qualitative) ([1]; 80 μM Ap3A, enzyme 50-200 nM): strong primary and secondary aggregation waves
- platelet aggregation response, agent alone (qualitative) ([1]; agent alone in PRP (Ap3A up to 160 μM; NPP4 100 nM)): does not trigger platelet aggregation
- effect on ADP-induced aggregation of NSAID-exposed platelets [2]: normalization of ADP-induced aggregation
- maximum amplitude of aggregation [3]: approximately 65%
